B1: mAb7024 (antibody, human IgG1, lambda, V domains shown)
VH: QVQLVQSGAEVKKPGSSVKVSCKASGGTFSSYAISWVRQAPGQGLEWMGSIIPWFGTTNYAQKFQGRVTITADESTSTAYMELSSLRSEDTAVYYCARDSEYYFDHWGQGTLVTVSS
VL: DIQMTQSPSSVSASVGDRVTITCRASQGISNWLNWYQQKPGKAPKLLIYAASSLQSGVPSRFSGSGSGTDFTLTISSLQPEDFATYYCQQYSDDPTFGQGTKVEIKG
notes: also called LM modulator of IL-17
B2: mAb4538 (antibody, human IgG1, lambda, V domains shown)
VH: QVQLQQSGPGLVKPSQTLSLTCAISGDSVSSSSAAWGWIRQSPSRGLEWLGRISYRSKWYNDYAVSVKSRITINPDTSKNQFSLQLNSVTPEDTAVYYCAREVDSMYYSYFDIWGQGTLVTVSS
VL: EIVLTQSPATLSLSPGERATLSCRASQNVWAFYLAWYQQKPGQAPRLLIYGASNRATGIPARFSGSGSGTDFTLTISSLEPEDFAVYYCQQYRSTLSLTFGQGTKVEIKG
notes: also called detection agent; anti-IL-17 antibody from Janssen Biotech, Inc
B3: mAb732 (antibody, human IgG1, lambda, V domains shown)
VH: QVQLQQSGPGLVKPSQTLSLTCAISGDSVSSSSAAWGWIRQSPSRGLEWLGRISYRSKWYNDYAVSVKSRITINPDTSKNQFSLQLNSVTPEDTAVYYCAREVDSMYYSYFDIWGQGTLVTVSS
VL: EIVLTQSPATLSLSPGERATLSCRASQNVWAFYLAWYQQKPGQAPRLLIYGASNRATGIPARFSGSGSGTDFTLTISSLEPEDFAVYYCTQYYSSPSLTFGQGTKVEIKG
notes: as for B1

Legend:
[1] = biological target: T1, recombinant IL-17 (human IL-17, interleukin 17A) (human, UniProt Q16552 24-155); test: competition in sandwich ELISA: IL-17A mixed with 10ug/ml modulator, free IL-17A detected with DuoSet DY317 (MAB317 capture, BAF317 detection)
T1 construct: Serial dilutions of recombinant IL-17 from 1 ng/ml in ELISA; also called IL-17A; CTLA8
T1 sequence (Q16552 24-155 limits assumed): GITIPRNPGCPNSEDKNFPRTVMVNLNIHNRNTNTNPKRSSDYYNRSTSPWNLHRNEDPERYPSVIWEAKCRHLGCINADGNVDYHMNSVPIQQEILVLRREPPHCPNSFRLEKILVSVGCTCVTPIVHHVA

[2] = biological target: T1, recombinant IL-17 (human IL-17, …); test: sandwich ELISA: AF-317 coated as capture, mAb4538 as detection, IL-17A titrated

Binder	binding result [1]	binding result [2]
B1	binds	–
B2	–	binds
B3	binds	–

From patent US20220365100A1 (Janssen / Centocor, published 2022)
